These results are taken from publication PMC10866885.

The target in assay [1] is VEGFR1 C471R mutant fused to mCherry (human) (UniProt P17948).
Assay [2] concerns the target wild-type human VEGFR1 fused to mCherry (human) (UniProt P17948).

Consider VEGF165 (ligand), for which the diffusion coefficient (D confocal) of VEGFR1 C471R-mCherry on the plasma membrane of CHO cells by FRAP after 100 nM VEGF165, read as receptor dimerization in assay [1] worked out at 0.017 µm^2 s^−1. In assay [2], this substance returned a diffusion coefficient (D confocal) of VEGFR1-mCherry on the plasma membrane of CHO cells by FRAP after 100 nM VEGF165, read as receptor dimerization of 0.018 µm^2 s^−1.
